Source: the supplement of paper PMC9112550, “Optimization of the antimicrobial peptide Bac7 by deep mutational scanning” (BMC Biology, 2022)
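Further: peptides expressed intracellularly from a pBAD plasmid library in pooled LB shake-flask culture, induced with 0.3% L-arabinose, DNA abundance read by NGS, three biological replicates, DESeq2 with apeglm shrinkage.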

What follows are sequences tested on Escherichia coli TOP10 (assay: shrunken log2 fold change of peptide-encoding DNA abundance (4.5 h post-induction vs induction); higher = less antimicrobial activity (less host growth inhibition)). Conditions: time post-induction: 4.5 h; library: site-saturation at positions 5, 18, 19, 20.
RRIRRRPPRLPRPRPRPPARPRP was tested, and the “shrunken log2 fold change” value was 0.762. RRIRRRPPRLPRPRPRPPAVPRP was tested, and the “shrunken log2 fold change” value was 0.606. RRIRRRPPRLPRPRPRPPCKPRP was tested, and the “shrunken log2 fold change” value was 0.492. RRIRRRPPRLPRPRPRPPDMPRP was tested, and the “shrunken log2 fold change” value was 0.432. In the case of RRIRRRPPRLPRPRPRPPEAPRP, the “shrunken log2 fold change” value is reported as 0.493. RRIRRRPPRLPRPRPRPPEHPRP was tested, and the “shrunken log2 fold change” value was 0.14. For RRIRRRPPRLPRPRPRPPELPRP, the “shrunken log2 fold change” value was -0.0467. With RRIRRRPPRLPRPRPRPPENPRP the “shrunken log2 fold change” value was 0.615. For RRIRRRPPRLPRPRPRPPFPPRP, the “shrunken log2 fold change” value was 0.645. In the case of RRIRRRPPRLPRPRPRPPFRPRP, the “shrunken log2 fold change” value is reported as 0.631. With RRIRRRPPRLPRPRPRPPFYPRP the “shrunken log2 fold change” value was 0.463. For RRIRRRPPRLPRPRPRPPHSPRP, the “shrunken log2 fold change” value was 0.916. RRIRRRPPRLPRPRPRPPHYPRP was tested, and the “shrunken log2 fold change” value was 1.15. With RRIRRRPPRLPRPRPRPPIRPRP the “shrunken log2 fold change” value was 2.1. For RRIRRRPPRLPRPRPRPPKMPRP, the “shrunken log2 fold change” value was 0.286. In the case of RRIRRRPPRLPRPRPRPPLYPRP, the “shrunken log2 fold change” value is reported as 0.851. RRIRRRPPRLPRPRPRPPMRPRP was tested, and the “shrunken log2 fold change” value was 1.03. RRIRRRPPRLPRPRPRPPPFPRP was tested, and the “shrunken log2 fold change” value was 0.938. With RRIRRRPPRLPRPRPRPPPNPRP the “shrunken log2 fold change” value was 0.951. In the case of RRIRRRPPRLPRPRPRPPRFPRP, the “shrunken log2 fold change” value is reported as 1.17. With RRIRRRPPRLPRPRPRPPSHPRP the “shrunken log2 fold change” value was 0.586. For RRIRRRPPRLPRPRPRPPSPPRP, the “shrunken log2 fold change” value was 0.875. In the case of RRIRRRPPRLPRPRPRPQDGPRP, the “shrunken log2 fold change” value is reported as 0.106. RRIRRRPPRLPRPRPRPQECPRP was tested, and the “shrunken log2 fold change” value was -0.0184. In the case of RRIRRRPPRLPRPRPRPQEIPRP, the “shrunken log2 fold change” value is reported as -0.149. In the case of RRIRRRPPRLPRPRPRPQENPRP, the “shrunken log2 fold change” value is reported as -0.0472. In the case of RRIRRRPPRLPRPRPRPQFGPRP, the “shrunken log2 fold change” value is reported as -0.00169. For RRIRRRPPRLPRPRPRPQGPPRP, the “shrunken log2 fold change” value was 0.206. RRIRRRPPRLPRPRPRPQHWPRP was tested, and the “shrunken log2 fold change” value was 0.179. RRIRRRPPRLPRPRPRPQKVPRP was tested, and the “shrunken log2 fold change” value was 0.234. With RRIRRRPPRLPRPRPRPQLIPRP the “shrunken log2 fold change” value was -0.0726. RRIRRRPPRLPRPRPRPQLLPRP was tested, and the “shrunken log2 fold change” value was 0.537. For RRIRRRPPRLPRPRPRPQMGPRP, the “shrunken log2 fold change” value was 0.231. RRIRRRPPRLPRPRPRPQMVPRP was tested, and the “shrunken log2 fold change” value was -0.0843. With RRIRRRPPRLPRPRPRPQPCPRP the “shrunken log2 fold change” value was -0.101. In the case of RRIRRRPPRLPRPRPRPQPSPRP, the “shrunken log2 fold change” value is reported as 0.231. In the case of RRIRRRPPRLPRPRPRPQQTPRP, the “shrunken log2 fold change” value is reported as -0.0146. For RRIRRRPPRLPRPRPRPQQWPRP, the “shrunken log2 fold change” value was 0.0704. For RRIRRRPPRLPRPRPRPQRPPRP, the “shrunken log2 fold change” value was 0.391. In the case of RRIRRRPPRLPRPRPRPQSLPRP, the “shrunken log2 fold change” value is reported as -0.0788. RRIRRRPPRLPRPRPRPQSWPRP was tested, and the “shrunken log2 fold change” value was 0.519. In the case of RRIRRRPPRLPRPRPRPQTFPRP, the “shrunken log2 fold change” value is reported as 0.264. RRIRRRPPRLPRPRPRPQTLPRP was tested, and the “shrunken log2 fold change” value was 0.101. With RRIRRRPPRLPRPRPRPQVIPRP the “shrunken log2 fold change” value was -0.0307. In the case of RRIRRRPPRLPRPRPRPQVYPRP, the “shrunken log2 fold change” value is reported as -0.0473. RRIRRRPPRLPRPRPRPQWDPRP was tested, and the “shrunken log2 fold change” value was 0.0215. In the case of RRIRRRPPRLPRPRPRPQYIPRP, the “shrunken log2 fold change” value is reported as 0.0837. For RRIRRRPPRLPRPRPRPRATPRP, the “shrunken log2 fold change” value was 0.162. RRIRRRPPRLPRPRPRPRCCPRP was tested, and the “shrunken log2 fold change” value was 0.43. For RRIRRRPPRLPRPRPRPRCHPRP, the “shrunken log2 fold change” value was 0.127. In the case of RRIRRRPPRLPRPRPRPRCIPRP, the “shrunken log2 fold change” value is reported as 0.174. RRIRRRPPRLPRPRPRPRCVPRP was tested, and the “shrunken log2 fold change” value was 0.402. With RRIRRRPPRLPRPRPRPRELPRP the “shrunken log2 fold change” value was 0.887. In the case of RRIRRRPPRLPRPRPRPRFVPRP, the “shrunken log2 fold change” value is reported as 0.375. With RRIRRRPPRLPRPRPRPRHCPRP the “shrunken log2 fold change” value was 0.119. RRIRRRPPRLPRPRPRPRHRPRP was tested, and the “shrunken log2 fold change” value was 0.178. RRIRRRPPRLPRPRPRPRIEPRP was tested, and the “shrunken log2 fold change” value was 0.261. In the case of RRIRRRPPRLPRPRPRPRIMPRP, the “shrunken log2 fold change” value is reported as 0.0517. For RRIRRRPPRLPRPRPRPRIYPRP, the “shrunken log2 fold change” value was -0.0573. RRIRRRPPRLPRPRPRPRKCPRP was tested, and the “shrunken log2 fold change” value was 0.22. In the case of RRIRRRPPRLPRPRPRPRKKPRP, the “shrunken log2 fold change” value is reported as 0.207. RRIRRRPPRLPRPRPRPRMEPRP was tested, and the “shrunken log2 fold change” value was 0.0167. In the case of RRIRRRPPRLPRPRPRPRNNPRP, the “shrunken log2 fold change” value is reported as -0.204. With RRIRRRPPRLPRPRPRPRPDPRP the “shrunken log2 fold change” value was 0.855. RRIRRRPPRLPRPRPRPRQMPRP was tested, and the “shrunken log2 fold change” value was 0.313. For RRIRRRPPRLPRPRPRPRRWPRP, the “shrunken log2 fold change” value was 0.386. In the case of RRIRRRPPRLPRPRPRPRSGPRP, the “shrunken log2 fold change” value is reported as 0.751. For RRIRRRPPRLPRPRPRPRSMPRP, the “shrunken log2 fold change” value was 0.468. In the case of RRIRRRPPRLPRPRPRPRTCPRP, the “shrunken log2 fold change” value is reported as 0.477. For RRIRRRPPRLPRPRPRPRTGPRP, the “shrunken log2 fold change” value was 0.476. In the case of RRIRRRPPRLPRPRPRPRWPPRP, the “shrunken log2 fold change” value is reported as 0.598. For RRIRRRPPRLPRPRPRPRWYPRP, the “shrunken log2 fold change” value was 0.092. In the case of RRIRRRPPRLPRPRPRPRYEPRP, the “shrunken log2 fold change” value is reported as 0.0341. RRIRRRPPRLPRPRPRPSCEPRP was tested, and the “shrunken log2 fold change” value was 0.13. RRIRRRPPRLPRPRPRPSCPPRP was tested, and the “shrunken log2 fold change” value was 0.941. In the case of RRIRRRPPRLPRPRPRPSCQPRP, the “shrunken log2 fold change” value is reported as -0.0699. RRIRRRPPRLPRPRPRPSDDPRP was tested, and the “shrunken log2 fold change” value was 0.209. RRIRRRPPRLPRPRPRPSDWPRP was tested, and the “shrunken log2 fold change” value was -0.302. In the case of RRIRRRPPRLPRPRPRPSEWPRP, the “shrunken log2 fold change” value is reported as -0.15. RRIRRRPPRLPRPRPRPSEYPRP was tested, and the “shrunken log2 fold change” value was -0.192. With RRIRRRPPRLPRPRPRPSFKPRP the “shrunken log2 fold change” value was -0.117. For RRIRRRPPRLPRPRPRPSFWPRP, the “shrunken log2 fold change” value was 0.38. RRIRRRPPRLPRPRPRPSGKPRP was tested, and the “shrunken log2 fold change” value was 0.845. For RRIRRRPPRLPRPRPRPSIQPRP, the “shrunken log2 fold change” value was -0.0217. For RRIRRRPPRLPRPRPRPSKVPRP, the “shrunken log2 fold change” value was -0.0758. RRIRRRPPRLPRPRPRPSMSPRP was tested, and the “shrunken log2 fold change” value was 0.0591. For RRIRRRPPRLPRPRPRPSQFPRP, the “shrunken log2 fold change” value was 0.0893. For RRIRRRPPRLPRPRPRPSRDPRP, the “shrunken log2 fold change” value was 0.303. RRIRRRPPRLPRPRPRPSRYPRP was tested, and the “shrunken log2 fold change” value was 1.35. For RRIRRRPPRLPRPRPRPSSNPRP, the “shrunken log2 fold change” value was -0.148. For RRIRRRPPRLPRPRPRPSSVPRP, the “shrunken log2 fold change” value was 0.131. In the case of RRIRRRPPRLPRPRPRPSSWPRP, the “shrunken log2 fold change” value is reported as -0.162. For RRIRRRPPRLPRPRPRPSTKPRP, the “shrunken log2 fold change” value was 0.068. RRIRRRPPRLPRPRPRPSTMPRP was tested, and the “shrunken log2 fold change” value was -0.467. For RRIRRRPPRLPRPRPRPSTYPRP, the “shrunken log2 fold change” value was -0.418. With RRIRRRPPRLPRPRPRPSVDPRP the “shrunken log2 fold change” value was 0.168. For RRIRRRPPRLPRPRPRPSWEPRP, the “shrunken log2 fold change” value was 0.1. With RRIRRRPPRLPRPRPRPSWVPRP the “shrunken log2 fold change” value was -0.223. In the case of RRIRRRPPRLPRPRPRPSYNPRP, the “shrunken log2 fold change” value is reported as -0.16. With RRIRRRPPRLPRPRPRPTALPRP the “shrunken log2 fold change” value was 0.554. For RRIRRRPPRLPRPRPRPTCEPRP, the “shrunken log2 fold change” value was 0.295. In the case of RRIRRRPPRLPRPRPRPTDNPRP, the “shrunken log2 fold change” value is reported as 0.277. For RRIRRRPPRLPRPRPRPTDWPRP, the “shrunken log2 fold change” value was 0.414. For RRIRRRPPRLPRPRPRPTGAPRP, the “shrunken log2 fold change” value was 0.633. For RRIRRRPPRLPRPRPRPTGFPRP, the “shrunken log2 fold change” value was 0.728. RRIRRRPPRLPRPRPRPTGGPRP was tested, and the “shrunken log2 fold change” value was 0.296. For RRIRRRPPRLPRPRPRPTGKPRP, the “shrunken log2 fold change” value was 0.901. With RRIRRRPPRLPRPRPRPTGWPRP the “shrunken log2 fold change” value was 0.766. For RRIRRRPPRLPRPRPRPTIDPRP, the “shrunken log2 fold change” value was -0.0234.
